The target of assay [1] is HIV-1 NL4-3 Vif N48H (residues 1-176) (HIV-1 (pNL4-3)) (UniProt P12504).
Assay [2] concerns the target HIV-1 pNL4-3 Vif N48H/R93E, expressed in HEK293T (HIV-1 (pNL4-3)) (UniProt P12504).

Data on 2 substances can be found in publication PMC10462622.

Turning to “human A3H K97Q/E70R, expressed in HEK293T (natural protein)”, in assay [1], the Vif-mediated degradation assay: resistance of A3H to Vif (+N48H), Western blot is 40%. As for “human A3H haplotype II K97Q (MBP tag cleaved) (natural protein)”, the Vif-mediated degradation assay: increase of the A3H level in the presence of the Vif mutant, Western blot in assay [2] amounted to 70%.
